In article PMC5327507, “Enhancing the thermostability of α-L-rhamnosidase from Aspergillus terreus and the enzymatic conversion of rutin to isoquercitrin by adding sorbitol” (BMC Biotechnology, 2017):

System: C[C@@H]1O[C@@H](Oc2ccc([N+](=O)[O-])cc2)[C@H](O)[C@H](O)[C@H]1O
Assay: purified protein
Conditions: pH 6.5, 65 °C, no additives

“α-L-rhamnosidase from A. terreus (Rha; synthetic gene MRha; RASE) (Aspergillus terreus)” showed a Km of 481 ± 10 µM.
